The values that follow come from patent publication US20200277399A1.

In test [1] the target is 2F5 antibody. In words: ELISA on coated 2F5; Fc variant 10 ug/ml.
For test [2], the target named is 2F5 antibody. In words: ELISA on coated 2F5; Fc variant 0.04115226 ug/ml.
In test [3] the target is 2F5 antibody. In words: ELISA on coated 2F5; Fc variant 0.00457247 ug/ml.
The target of test [4] is 2F5 antibody. In words: ELISA on coated 2F5; Fc variant 0.12345679 ug/ml. (In an ELISA, binding on a coated surface is turned into a signal by an enzyme label.)
For test [5], the target named is 2F5 antibody. Briefly: ELISA on coated 2F5; Fc variant 0.01371742 ug/ml.
Test [6] deals with 2F5 antibody. In words: ELISA on coated 2F5; Fc variant 0.37037037 ug/ml.
Test [7] concerns the target 2F5 antibody. Briefly: ELISA on coated 2F5; Fc variant 3.33333333 ug/ml.
Test [8] addresses 2F5 antibody. In words: ELISA on coated 2F5; Fc variant 1.11111111 ug/ml.

Turning to “Fc_ELDKWA_BC (from UniProt P0DOX5 227-449)”, the absorbance in the test with 2F5 antibody [1] worked out at 0.619; with 2F5 antibody [2], 0.0197; with 2F5 antibody [3] it was 0.0133; with 2F5 antibody [4] it was 0.0213; in the test with 2F5 antibody [5] it was 0.0107; with 2F5 antibody [6], 0.047. Also, the absorbance amounted to 0.232 in the test with 2F5 antibody [7] and 0.091 with 2F5 antibody [8].

For “Fc_ELDKWA_DE (from UniProt P0DOX5 227-449)”, the absorbance turned out to be 1.25 in the test with 2F5 antibody [1]; 0.038 with 2F5 antibody [2]; 0.0177 in the test with 2F5 antibody [3]; 0.0673 with 2F5 antibody [4]; 0.0283 in the test with 2F5 antibody [5]; 0.185 with 2F5 antibody [6]. The absorbance turned out to be 0.846 in the test with 2F5 antibody [7] and 0.495 in the test with 2F5 antibody [8].

“Fc_ELDKWA_FG (from UniProt P0DOX5 227-449)”: the absorbance was found to be 1.4 with 2F5 antibody [1]; 0.0365 with 2F5 antibody [2]; 0.012 with 2F5 antibody [3]; 0.108 with 2F5 antibody [4]; 0.0215 with 2F5 antibody [5]; 0.297 in the test with 2F5 antibody [6]. For the same substance, the values for the absorbance with 2F5 antibody [7] and with 2F5 antibody [8] were 1.32 and 0.706, respectively.
